Molecular target: HPIV3 fusion (F) protein stabilized in the prefusion conformation (HPIV3 preF) (human parainfluenza virus type 3) (UniProt P06828)
Assay: cryo-EM structure

HPIV3 fusion (F) protein stabilized in the prefusion conformation (HPIV3 preF) (from UniProt P06828 19-481) (natural protein)
stoichiometry N: 3

From publication PMC9923667
